Reference: US20200079833A1 (AstraZeneca / MedImmune, published 2020)
Residue numbers refer to the chain shown, from its start. Starred links: 1 amine or outer side, 2 acyl side, 3 side chain; linkers in the order of their positions; H or OH if unused. Non-standard residues stand in square brackets, D forms with d. Groups on a side chain read outwards from the residue. Primed or numbered codes have the meaning given here. No end group written: not given here. *: point of attachment. Dodecanoyl(12-OPh(4-COOH)) = O=C(O)c1ccc(OCCCCCCCCCCCC(=O)*)cc1; γGlu = O=C(O)[C@H](CCC(=O)[*:2])N[*:1]; Stearoyl = CCCCCCCCCCCCCCCCCC(=O)*; αMeF = C[C@](N)(Cc1ccccc1)C(=O)O; αMeK = C[C@](N)(CCCCN)C(=O)O; αMeS = C[C@](N)(CO)C(=O)O; PEG2′ = not defined here; Aib = CC(C)(N)C(=O)O

T1: glucose-dependent insulinotropic peptide (gastric inhibitory polypeptide) receptor (human, UniProt P48546 22-466)
T1 sequence (looked up): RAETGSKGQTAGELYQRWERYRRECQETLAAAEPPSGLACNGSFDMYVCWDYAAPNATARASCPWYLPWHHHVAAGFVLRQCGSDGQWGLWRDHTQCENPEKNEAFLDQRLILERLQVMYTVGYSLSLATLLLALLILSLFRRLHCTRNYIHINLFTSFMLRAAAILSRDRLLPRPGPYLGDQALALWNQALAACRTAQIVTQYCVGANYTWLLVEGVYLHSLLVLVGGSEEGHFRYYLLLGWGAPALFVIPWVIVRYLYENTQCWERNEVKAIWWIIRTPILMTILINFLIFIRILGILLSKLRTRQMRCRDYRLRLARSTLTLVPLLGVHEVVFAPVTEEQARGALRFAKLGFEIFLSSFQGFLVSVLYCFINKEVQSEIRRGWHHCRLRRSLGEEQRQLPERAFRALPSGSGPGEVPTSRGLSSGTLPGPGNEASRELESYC

T2: glucose-dependent insulinotropic peptide (gastric inhibitory polypeptide) receptor (GIPR) (human, UniProt P48546 22-466)
T2 sequence (looked up): T1 sequence (looked up)

B1: SEQ ID NO 144 (peptide)
peptide: H[Aib]EGS[αMeF]TSDV[αMeS]S[αMeF]LEGEAAK([PEG2′-PEG2′-Dodecanoyl(12-OPh(4-COOH))])E[αMeF]IA[αMeF]VV[αMeK]GG-NH2
B2: SEQ ID NO 143 (peptide)
peptide: H[Aib]EGS[αMeF]TSDV[αMeS]S[αMeF]LEGEAAK([PEG2′-Dodecanoyl(12-OPh(4-COOH))])E[αMeF]IA[αMeF]VV[αMeK]GG-NH2
B3: SEQ ID NO 145 (peptide)
peptide: H[Aib]EGS[αMeF]TSDV[αMeS]S[αMeF]LEGEAAK([PEG2′-PEG2′-PEG2′-Dodecanoyl(12-OPh(4-COOH))])E[αMeF]IA[αMeF]VV[αMeK]GG-NH2
B4: SEQ ID NO 20 (peptide)
peptide: HXEGTFTXDVSSYLEGQAAKEFIAWLVKGR
modifications: Aib 2; Aib 8; C-terminal amide
B5: SEQ ID NO 22 (peptide)
peptide: B4 peptide with X8S, S11X
modifications: Aib 2; Aib 11; C-terminal amide
B6: SEQ ID NO 19 (peptide)
peptide: B4 peptide with X8S
modifications: Aib 2; α-MeSer 8; C-terminal amide
B7: SEQ ID NO 17 (peptide)
peptide: H[Aib]EGS[αMeF]TSDV[αMeS]S[αMeF]LEGEAA[αMeK]E[αMeF]IA[αMeF]VV[αMeK]GG-NH2
modifications: N-terminus assumed
SMILES: CC[C@H](C)[C@H](NC(=O)[C@](C)(Cc1ccccc1)NC(=O)[C@H](CCC(=O)O)NC(=O)[C@](C)(CCCCN)NC(=O)[C@H](C)NC(=O)[C@H](C)NC(=O)[C@H](CCC(=O)O)NC(=O)CNC(=O)[C@H](CCC(=O)O)NC(=O)[C@H](CC(C)C)NC(=O)[C@](C)(Cc1ccccc1)NC(=O)[C@H](CO)NC(=O)[C@](C)(CO)NC(=O)[C@@H](NC(=O)[C@H](CC(=O)O)NC(=O)[C@H](CO)NC(=O)[C@@H](NC(=O)[C@](C)(Cc1ccccc1)NC(=O)[C@H](CO)NC(=O)CNC(=O)[C@H](CCC(=O)O)NC(=O)C(C)(C)NC(=O)[C@@H](N)Cc1c[nH]cn1)[C@@H](C)O)C(C)C)C(=O)N[C@@H](C)C(=O)N[C@@](C)(Cc1ccccc1)C(=O)N[C@H](C(=O)N[C@H](C(=O)N[C@@](C)(CCCCN)C(=O)NCC(=O)NCC(N)=O)C(C)C)C(C)C
B8: SEQ ID NO 18 (peptide)
peptide: H[Aib]EGS[αMeF]T[αMeS]DV[αMeS]S[αMeF]LEGEAA[αMeK]E[αMeF]IA[αMeF]VV[αMeK]GG-NH2
modifications: N-terminus assumed
SMILES: CC[C@H](C)[C@H](NC(=O)[C@](C)(Cc1ccccc1)NC(=O)[C@H](CCC(=O)O)NC(=O)[C@](C)(CCCCN)NC(=O)[C@H](C)NC(=O)[C@H](C)NC(=O)[C@H](CCC(=O)O)NC(=O)CNC(=O)[C@H](CCC(=O)O)NC(=O)[C@H](CC(C)C)NC(=O)[C@](C)(Cc1ccccc1)NC(=O)[C@H](CO)NC(=O)[C@](C)(CO)NC(=O)[C@@H](NC(=O)[C@H](CC(=O)O)NC(=O)[C@](C)(CO)NC(=O)[C@@H](NC(=O)[C@](C)(Cc1ccccc1)NC(=O)[C@H](CO)NC(=O)CNC(=O)[C@H](CCC(=O)O)NC(=O)C(C)(C)NC(=O)[C@@H](N)Cc1c[nH]cn1)[C@@H](C)O)C(C)C)C(=O)N[C@@H](C)C(=O)N[C@@](C)(Cc1ccccc1)C(=O)N[C@H](C(=O)N[C@H](C(=O)N[C@@](C)(CCCCN)C(=O)NCC(=O)NCC(N)=O)C(C)C)C(C)C
B9: SEQ ID NO 21 (peptide)
peptide: B4 peptide with X8S
modifications: Aib 2; α-MeSer 11; C-terminal amide
B10: SEQ ID NO 3 (peptide)
peptide: H[Aib]EGS[αMeF]TSDV[αMeS]S[αMeF]LEGEAAK([PEG2′-PEG2′-γGlu-Stearoyl])E[αMeF]IA[αMeF]VV[αMeK]GG-NH2
B11: SEQ ID NO 5 (peptide)
peptide: HXEGTFTSDVSSYLEGQAAKEFIAWLVKGRK
modifications: Aib 2; K(ε-γE-Palmitoyl) after R30; C-terminal amide
B12: SEQ ID NO 23 (peptide)
peptide: B4 peptide with X8S
modifications: Aib 2; α-MeSer 8; α-MeSer 11; C-terminal amide
B13: SEQ ID NO 24 (peptide)
peptide: H[Aib]EGTFT[Aib]DV[Aib]SYLEGQAAKEFIAWLVKGR-NH2
modifications: N-terminus assumed
SMILES: CC[C@H](C)[C@H](NC(=O)[C@H](Cc1ccccc1)NC(=O)[C@H](CCC(=O)O)NC(=O)[C@H](CCCCN)NC(=O)[C@H](C)NC(=O)[C@H](C)NC(=O)[C@H](CCC(N)=O)NC(=O)CNC(=O)[C@H](CCC(=O)O)NC(=O)[C@H](CC(C)C)NC(=O)[C@H](Cc1ccc(O)cc1)NC(=O)[C@H](CO)NC(=O)C(C)(C)NC(=O)[C@@H](NC(=O)[C@H](CC(=O)O)NC(=O)C(C)(C)NC(=O)[C@@H](NC(=O)[C@H](Cc1ccccc1)NC(=O)[C@@H](NC(=O)CNC(=O)[C@H](CCC(=O)O)NC(=O)C(C)(C)NC(=O)[C@@H](N)Cc1c[nH]cn1)[C@@H](C)O)[C@@H](C)O)C(C)C)C(=O)N[C@@H](C)C(=O)N[C@@H](Cc1c[nH]c2ccccc12)C(=O)N[C@@H](CC(C)C)C(=O)N[C@H](C(=O)N[C@@H](CCCCN)C(=O)NCC(=O)N[C@@H](CCCNC(=N)N)C(N)=O)C(C)C

biological target: GLP-1 receptor (GLP-1R) (human, UniProt P43220 24-463); assay: cell-based or functional assay

Point of comparison: B3, “cAMP Mean pM GLP-1R” value 21 pM. Against it:
- B1 — lower, 12.6 pM
- B2 — lower, 8.6 pM

Point of comparison: B1, “cAMP Primary assay EC50 GLP-1R n1” value 0.016 nM. Against it:
- B2 — within 1.5-fold, 0.012 nM
- B3 — 1.7-fold higher, 0.027 nM

Point of comparison: B3, “cAMP Primary assay EC50 GLP-1R n2” value 0.015 nM. Against it:
- B1 — 1.6-fold lower, 0.0096 nM
- B2 — 2.9-fold lower, 0.0052 nM

biological target: glucagon receptor (human, UniProt P47871 26-477); assay: cell-based or functional assay
Sequence (P47871 26-477): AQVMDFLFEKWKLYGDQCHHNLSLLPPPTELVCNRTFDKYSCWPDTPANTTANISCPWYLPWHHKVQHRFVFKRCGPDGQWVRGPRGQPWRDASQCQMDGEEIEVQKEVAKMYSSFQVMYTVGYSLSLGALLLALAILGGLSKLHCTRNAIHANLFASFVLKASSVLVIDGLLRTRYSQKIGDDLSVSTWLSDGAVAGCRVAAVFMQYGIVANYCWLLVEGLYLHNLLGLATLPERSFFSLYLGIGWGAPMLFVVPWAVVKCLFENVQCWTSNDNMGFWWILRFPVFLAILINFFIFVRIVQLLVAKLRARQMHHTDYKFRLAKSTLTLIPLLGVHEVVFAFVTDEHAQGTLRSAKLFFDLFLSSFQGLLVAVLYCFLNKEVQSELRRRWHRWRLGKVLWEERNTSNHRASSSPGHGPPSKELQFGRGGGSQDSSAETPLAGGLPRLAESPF

Point of comparison: B8, “Primary assay EC50 (cAMP), n1” value 100 nM. Against it:
- B4 — 2.9-fold higher, 290 nM
- B5 — 3.9-fold higher, 390 nM
- B6 — within 1.5-fold, 130 nM
- B7 — 3.2-fold lower, 31 nM
- B9 — 3.4-fold higher, 340 nM
- B10 — 4-fold lower, 25 nM
- B11 — within 1.5-fold, 81 nM
- B12 — 5.4-fold higher, 540 nM
- B13 — 7.4-fold higher, 740 nM

Point of comparison: B5, “Primary assay EC50 (cAMP), n2” value 240 nM. Against it:
- B4 — within 1.5-fold, 290 nM
- B6 — 1.8-fold lower, 130 nM
- B7 — 7.7-fold lower, 31 nM
- B8 — 2.4-fold lower, 100 nM
- B9 — within 1.5-fold, 340 nM
- B10 — 9.6-fold lower, 25 nM
- B11 — 3-fold lower, 81 nM
- B12 — 2.2-fold higher, 540 nM
- B13 — 3.1-fold higher, 740 nM

biological target: glucagon receptor (GCGR) (human, UniProt P47871 26-477); assay: cell-based or functional assay
Sequence (P47871 26-477): as above

Point of comparison: B3, “cAMP Primary assay EC50 Gluc-R” value 25 nM. Against it:
- B1 — within 1.5-fold, 26 nM
- B2 — within 1.5-fold, 27 nM

Point of comparison: B2, “cAMP Primary assay EC50 Gluc-R (2nd)” value 27 nM. Against it:
- B1 — within 1.5-fold, 26 nM
- B3 — within 1.5-fold, 25 nM

biological target: T1, glucose-dependent insulinotropic …; assay: cell-based or functional assay

Point of comparison: B6, “Primary assay EC50 (cAMP), n1” value 130 nM. Against it:
- B4 — 2.2-fold higher, 290 nM
- B5 — 3.7-fold higher, 480 nM
- B7 — 4.2-fold lower, 31 nM
- B8 — within 1.5-fold, 100 nM
- B9 — 2.6-fold higher, 340 nM
- B10 — 5.2-fold lower, 25 nM
- B11 — 1.6-fold lower, 81 nM
- B12 — 4.2-fold higher, 540 nM
- B13 — 5.7-fold higher, 740 nM

Point of comparison: B5, “Primary assay EC50 (cAMP), n2” value 480 nM. Against it:
- B4 — 1.7-fold lower, 290 nM
- B6 — 3.7-fold lower, 130 nM
- B7 — 15-fold lower, 31 nM
- B8 — 4.8-fold lower, 100 nM
- B9 — within 1.5-fold, 340 nM
- B10 — 19-fold lower, 25 nM
- B11 — 5.9-fold lower, 81 nM
- B12 — within 1.5-fold, 540 nM
- B13 — 1.5-fold higher, 740 nM

biological target: T2, glucose-dependent insulinotropic …; assay: cell-based or functional assay

Point of comparison: B2, “cAMP Primary assay EC50 GIP-R” value 27 nM. Against it:
- B1 — within 1.5-fold, 26 nM
- B3 — within 1.5-fold, 25 nM

Point of comparison: B3, “cAMP Primary assay EC50 GIP-R (2nd)” value 25 nM. Against it:
- B1 — within 1.5-fold, 26 nM
- B2 — within 1.5-fold, 27 nM

biological target: GLP-1 receptor (human, UniProt P43220 24-463); assay: cell-based or functional assay

Point of comparison: B5, “Primary assay EC50 (cAMP), Mean pM GLP-1R” value 118 pM. Against it:
- B4 — higher, 13400 pM
- B7 — lower, 0.2 pM
- B8 — higher, 4940 pM
- B10 — lower, 100 pM
- B11 — lower, 6.5 pM
- B13 — higher, 5600 pM

Point of comparison: B4, “Primary assay EC50 (cAMP), n1” value 15 nM. Against it:
- B5 — 120-fold lower, 0.12 nM
- B7 — 60000-fold lower, 0.00025 nM
- B8 — 3.7-fold lower, 4.1 nM
- B10 — 230-fold lower, 0.064 nM
- B11 — 2000-fold lower, 0.0075 nM
- B13 — 4.5-fold lower, 3.3 nM

Point of comparison: B7, “Primary assay EC50 (cAMP), n2” value 0.00024 nM. Against it:
- B4 — 50000-fold higher, 12 nM
- B5 — 500-fold higher, 0.12 nM
- B8 — 24000-fold higher, 5.8 nM
- B10 — 580-fold higher, 0.14 nM
- B11 — 23-fold higher, 0.0055 nM
- B13 — 33000-fold higher, 7.9 nM
